These results are taken from US20170183413A1 (CELLECTIS, published 2017).

The test has as its target T1, CD123-Fc protein (fusion of the extracellular domain of the human CD123 protein with a murine IgG1 Fc … (human; mouse, UniProt P26951 19-305).
T1 construct: extracellular domain; also called fusion protein; not shown: murine IgG1 Fc fragment
T1 sequence (looked up): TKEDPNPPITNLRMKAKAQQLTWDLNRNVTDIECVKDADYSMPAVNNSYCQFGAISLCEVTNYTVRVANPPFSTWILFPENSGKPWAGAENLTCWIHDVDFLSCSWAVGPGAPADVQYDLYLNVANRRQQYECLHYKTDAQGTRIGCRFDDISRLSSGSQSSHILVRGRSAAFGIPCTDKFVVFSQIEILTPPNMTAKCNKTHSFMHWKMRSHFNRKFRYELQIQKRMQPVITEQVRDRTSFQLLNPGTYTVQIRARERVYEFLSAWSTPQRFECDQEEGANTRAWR
The experiment in a line: flow cytometry on transduced T-cells, CD123-Fc fusion protein detected with PE-conjugated anti-mouse Fc. On the procedure:
Transduction of T-cells with recombinant lentiviral vectors expression the CAR was carried out three days after T-cell purification/activation. Lentiviral vectors were produced by Vectalys SA (Toulouse, France) by transfection of genomic and helper plasmids in HEK-293 cells. Transductions were carried out at a multiplicity of infection of 5, using 10⁶ cells per transduction. CAR detection at the surface of T-cells was done using a recombinant protein consisting on the fusion of the extracellular domain of the human CD123 protein together with a murine IgG1 Fc fragment (produced by LakePharma). Binding of this protein to the CAR molecule was detected with a PE-conjugated secondary antibody (Jackson Immunoresearch) targeting the mouse Fc portion of the protein, and analyzed by flow cytometry. […]
CAR detection was done using a fusion protein in which the extracellular domain of the human CD123 protein was fused to a mouse IgG1 derived Fc fragment. Binding of the CAR at the cell surface with the CD123 portion of the fusion protein was detected with anti-Fc PE-conjugated antibody and analyzed by flow cytometry. FIG. 9 represents the % of CAR+ or of Blue fluorescent protein (BFP+) cells (measured by FACS analysis) at Day 8 or 10 post transduction for two different donors.
(Flow cytometry measures light scatter and fluorescence of single cells or particles in a stream.)

B1: 32716-v3 CAR (32716-3, anti-CD123 chimeric antigen receptor, structure V-3: 32716 scFv, CD8alpha hinge, CD8alpha transmembrane domain, 41BB intracellular … (other)
chain: QIQLVQSGPELKKPGETVKISCKASGYIFTNYGMNWVKQAPGKSFKWMGWINTYTGESTYSADFKGRFAFSLETSASTAYLHINDLKNEDTATYFCARSGGYDPMDYWGQGTSVTVSSGGGGSGGGGSGGGGSDIVLTQSPASLAVSLGQRATISCRASESVDNYGNTFMHWYQQKPGQPPKLLIYRASNLESGIPARFSGSGSRTDFTLTINPVEADDVATYYCQQSNEDPPTFGAGTKLELKTTTPAPRPPTPAPTIASQPLSLRPEACRPAAGGAVHTRGLDFACDIYIWAPLAGTCGVLLLSLVITLYCKRGRKKLLYIFKQPFMRPVQTTQEEDGCSCRFPEEEEGGCELRVKFSRSADAPAYQQGQNQLYNELNLGRREEYDVLDKRRGRDPEMGGKPRRKNPQEGLYNELQKDKMAEAYSEIGMKGERRRGKGHDGLYQGLSTATKDTYDALHMQALPPR
notes: Chimeric antigen receptor on the surface of human T cells; 38; In the lentiviral vector the CAR is coupled to BFP through a 2A peptide; also called CAR 32716V3
Consider B1, for which the binding result is given as “binds”.

B2: Klon43-v3 CAR (Klo43-3, anti-CD123 chimeric antigen receptor, structure V-3: Klon43 scFv, CD8alpha hinge, CD8alpha transmembrane domain, 41BB intracellular … (other)
chain: EVKLVESGGGLVQPGGSLSLSCAASGFTFTDYYMSWVRQPPGKALEWLALIRSKADGYTTEYSASVKGRFTLSRDDSQSILYLQMNALRPEDSATYYCARDAAYYSYYSPEGAMDYWGQGTSVTVSSGGGGSGGGGSGGGGSMADYKDIVMTQSHKFMSTSVGDRVNITCKASQNVDSAVAWYQQKPGQSPKALIYSASYRYSGVPDRFTGRGSGTDFTLTISSVQAEDLAVYYCQQYYSTPWTFGGGTKLEIKRTTTPAPRPPTPAPTIASQPLSLRPEACRPAAGGAVHTRGLDFACDIYIWAPLAGTCGVLLLSLVITLYCKRGRKKLLYIFKQPFMRPVQTTQEEDGCSCRFPEEEEGGCELRVKFSRSADAPAYQQGQNQLYNELNLGRREEYDVLDKRRGRDPEMGGKPRRKNPQEGLYNELQKDKMAEAYSEIGMKGERRRGKGHDGLYQGLSTATKDTYDALHMQALPPR
notes: Chimeric antigen receptor on the surface of human T cells (mRNA transfection or lentiviral transduction); 44; In the lentiviral vector the CAR is coupled to BFP through a 2A peptide; also called CAR Klon 43 V3; Klon43 CAR
In the case of B2, the binding result was “binds”.
